Test results reported in patent US20100080803A1.
Where no end group is shown, it is not given here.

Target: a seven trans-membrane receptor
Assay: cell-based or functional assay

half-saturation effect of the peptide on the decrease in cell area of A7R5 cells with 5 nM bradykinin: 9.35 µM | increase of rat uterine contraction in the presence of oxytocin (isometric tissue bath, 100 µM peptide): 30%
Binder: AAHLPAEFTPAVHASLDKF-NH2 [2.022 kDa peptide, amino acids 110-128 of α-chain hemoglobin (SEQ ID No: 9)]
